In patent US20210238276A1 (INTEGRAL MOLECULAR, published 2021):
Changes are numbered by the printed parent chain.

How the values were obtained:
Test in all cases: flow cytometry, alanine-scan library in HEK-293T, with cytochalasin B
hsGLUT4 S310A = biological target: T1, hsGLUT4 S310A (human, UniProt P14672 1-509)
T1 sequence: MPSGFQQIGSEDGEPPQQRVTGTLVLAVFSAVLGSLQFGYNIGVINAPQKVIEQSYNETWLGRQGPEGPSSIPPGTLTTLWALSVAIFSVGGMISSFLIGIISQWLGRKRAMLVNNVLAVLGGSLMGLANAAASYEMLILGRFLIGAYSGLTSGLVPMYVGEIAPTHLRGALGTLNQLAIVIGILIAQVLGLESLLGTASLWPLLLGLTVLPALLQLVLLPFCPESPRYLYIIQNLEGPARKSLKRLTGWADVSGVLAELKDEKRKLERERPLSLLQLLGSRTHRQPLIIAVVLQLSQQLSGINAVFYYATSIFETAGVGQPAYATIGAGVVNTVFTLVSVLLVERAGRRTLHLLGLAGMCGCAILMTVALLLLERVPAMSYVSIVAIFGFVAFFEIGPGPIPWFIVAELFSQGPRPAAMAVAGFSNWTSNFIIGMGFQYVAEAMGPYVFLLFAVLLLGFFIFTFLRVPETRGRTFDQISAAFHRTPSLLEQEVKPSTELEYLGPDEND
Outline: (§1)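 HEK-293T cells expressing individual GLUT4 alanine mutants were stained 48 h post-transfection with anti-GLUT4 scFv MAbs (2 μg/ml), then biotinylated secondary and streptavidin-PerCP, and read by high-throughput flow cytometry. Where used, cytochalasin B (10 uM final) was given for 30 min before and during primary antibody staining.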

hsGLUT4 V306A = biological target: T2, hsGLUT4 V306A (human, UniProt P14672 1-509)
T2 sequence: T1 sequence with V306A, A310S
Outline: as §1

hsGLUT4 G414A = biological target: T3, hsGLUT4 G414A (human, UniProt P14672 1-509)
T3 sequence: T1 sequence with A310S, G414A
Outline: as §1

hsGLUT4 N304A = biological target: T4, hsGLUT4 N304A (human, UniProt P14672 1-509)
T4 sequence: T1 sequence with N304A, A310S
Outline: as §1

B1: AB102 (Fc fusion)
scFv: ALTQPSSVSANLGGTVKITCSGGGSYGYGWYQQKSPGSAPVTVIYSNDQRPSDIPSRFSGSKSGSTATLTITGVRAEDEAIYYCGSTDSDYVGIFGAGTTLTVLGQSSRSSGGGGSSGGGGSAVTLDESGGGLQTPGGTLSLVCKASGFDFSSYATIWVRQAPGKGLEWVAGISGTGTGSSTGYAPAVKGRATISRDNGQSTVRLQLNNLRAEDTGSYFCAKSTGYGDSWIYPDSIDAWGHGTEVIVSS
notes: also called MAb AB102; not shown: Fc fragment of human IgG1, cloned in frame with the scFv
% of binding to wild type GLUT4 (hsGLUT4 S310A): 20% | % of binding to wild type GLUT4 (hsGLUT4 V306A): 29% | % of binding to wild type GLUT4 (hsGLUT4 G414A): 23% | % of binding to wild type GLUT4 (hsGLUT4 N304A): 112%
